The record followed here is PMC11154711 (2024).

Holding throughout (assay): BLI
(In general: BLI is a label-free optical method that tracks binding on a fibre tip over time.)

The target in experiment [1] is T1, OTUB1 V173K (human, UniProt Q96FW1 1-271, V173K).
In experiment [2] the target is T2, OTUB1 F133A (human, UniProt Q96FW1 1-271, F133A).
The target in experiment [3] is T3, OTUB1 V173D (human, UniProt Q96FW1 1-271, V173D).
Experiment [4] has as its target T1, OTUB1 V173K. This is another data set of the same source.
Experiment [5] has as its target T2, OTUB1 F133A. This is another data set of the same source.
The target of experiment [6] is T3, OTUB1 V173D. The source holds these as a separate data set.

B1: Ubc13 (E2 ubiquitin-conjugating enzyme) (enzyme)
chain: MAGLPRRIIKETQRLLAEPVPGIKAEPDESNARYFHVVIAGPQDSPFEGGTFKLELFLPEEYPMAAPKVRFMTKIYHPNVDKLGRICLDILKDKWSPALQIRTVLLSIQALLSAPNPDDPLANDVAEQWKTNEAQAIETARAWTRLYAMNNI
As to B1, the Kd – broadly, the concentration at which binding is half-saturated – with OTUB1 V173K [1] was found to be 1.76 µM; with OTUB1 F133A [2], 46.7 µM; in the experiment with OTUB1 V173D [3] it was 3.02 µM. In addition, the off-rate (koff) (as a rule, the rate constant with which the complex falls apart) in the experiment with OTUB1 V173K [4] stood at 0.006 s⁻¹; in the experiment with OTUB1 F133A [5], 0.005 s⁻¹; with OTUB1 V173D [6], 0.004 s⁻¹.
